Series [1] deals with Ac-Agp57-Tat(47-57)-NH2 (HIV-1?). Briefly: EMSA. The note with it: with 10 ug/mL poly(dI-dC); unit inferred, inferred nM from comparison with 67 ± 19.
In series [2] the test system is AgbTat (all six Arg replaced by Agb) (HIV-1?). Description: EMSA. The note with it: apparent; with 10 ug/mL poly(dI-dC); 50 mM Tris-HCl pH 7.4, 50 mM KCl. For orientation: Mobility shift assays separate free from complexed probe on a gel.
In series [3] the test system is AghTat (all six Arg replaced by Agh) (HIV-1?). Description: EMSA. The note with it: apparent; with 10 ug/mL poly(dI-dC); 50 mM Tris-HCl pH 7.4, 50 mM KCl.
Series [4] deals with ArgTat (Tat(47-57), Tat-Arg) (HIV-1?). Briefly: EMSA.
For series [5], the system named is Tat-Cit49 (HIV-1?). Briefly: EMSA. Particulars: with 10 ug/mL poly(dI-dC), 25 C.
For series [6], the system named is Tat-Cit52 (HIV-1?). Description: EMSA. The note with it: with 10 ug/mL poly(dI-dC), 25 C.
The subject of series [7] is Tat-Cit53 (HIV-1?). Description: EMSA. The note with it: with 10 ug/mL poly(dI-dC), 25 C.
In series [8] the test system is Tat-Cit55 (HIV-1?). Briefly: EMSA. The note with it: with 10 ug/mL poly(dI-dC), 25 C.
Series [9] relates to Tat-Cit56 (HIV-1?). Briefly: EMSA. The note with it: with 10 ug/mL poly(dI-dC), 25 C.
The test system of series [10] is Tat-Cit57 (HIV-1?). Briefly: EMSA. Particulars: with 10 ug/mL poly(dI-dC), 25 C.
In series [11] the test system is AgbTat (all six Arg replaced by Agb) (HIV-1?). Briefly: FP. The note with it: apparent; 1:1 fit; 50 mM Tris-HCl pH 7.4, 20 mM KCl, 0.02% Tween-20, room temperature.
Series [12] relates to AghTat (all six Arg replaced by Agh) (HIV-1?). Briefly: FP. The note with it: apparent; 1:1 fit; 50 mM Tris-HCl pH 7.4, 20 mM KCl, 0.02% Tween-20, room temperature.
The subject of series [13] is ArgTat (Tat(47-57), Tat-Arg) (HIV-1?). Description: FP. The note with it: apparent; 1:1 fit; 50 mM Tris-HCl pH 7.4, 20 mM KCl, 0.02% Tween-20, room temperature, 25 nM RNA.
The subject of series [14] is Tat-Cit49 (HIV-1?). Briefly: FP. Particulars: 50 mM Tris-HCl pH 7.4, 20 mM KCl, 0.02% Tween-20, room temperature.
For series [15], the system named is Tat-Cit52 (HIV-1?). Description: FP. The note with it: 50 mM Tris-HCl pH 7.4, 20 mM KCl, 0.02% Tween-20, room temperature.
Series [16] concerns Tat-Cit53 (HIV-1?). Briefly: FP. The note with it: 50 mM Tris-HCl pH 7.4, 20 mM KCl, 0.02% Tween-20, room temperature.
For series [17], the system named is Tat-Cit55 (HIV-1?). Description: FP. Particulars: 50 mM Tris-HCl pH 7.4, 20 mM KCl, 0.02% Tween-20, room temperature.
For series [18], the system named is Tat-Cit56 (HIV-1?). Briefly: FP. Particulars: 50 mM Tris-HCl pH 7.4, 20 mM KCl, 0.02% Tween-20, room temperature.
The test system of series [19] is Tat-Cit57 (HIV-1?). Description: FP. The note with it: 50 mM Tris-HCl pH 7.4, 20 mM KCl, 0.02% Tween-20, room temperature.

For the substance HIV TAR RNA (F-TAR-RNA), the Kd in series [1] stood at 56 nM; in [2], 0.031 µM; in series [3], 0.45 µM; in [4], 0.067 µM; with Tat-Cit49 (HIV-1?) [5], 0.138 µM; with Tat-Cit52 (HIV-1?) [6], 0.235 µM. The Kd came out at 0.344 µM with Tat-Cit53 (HIV-1?) [7]; 0.279 µM with Tat-Cit55 (HIV-1?) [8]; 0.164 µM in the series with Tat-Cit56 (HIV-1?) [9]; 0.146 µM with Tat-Cit57 (HIV-1?) [10]; 0.032 µM in [11]; 0.036 µM in series [12]. Moreover, the Kd came to 0.025 µM in series [13]; 0.094 µM in the series with Tat-Cit49 (HIV-1?) [14]; 0.116 µM in the series on Tat-Cit52 (HIV-1?) [15]; 0.102 µM with Tat-Cit53 (HIV-1?) [16]; 0.099 µM in the series with Tat-Cit55 (HIV-1?) [17]; 0.055 µM in the series on Tat-Cit56 (HIV-1?) [18]. The substance also displayed a Kd with Tat-Cit57 (HIV-1?) [19] of 0.049 µM.

(Values after US20130109618.)
